For the data set, the target named is T1, NRF1 DD-DBD (Homo sapiens, UniProt Q16656 49-288).
T1 sequence: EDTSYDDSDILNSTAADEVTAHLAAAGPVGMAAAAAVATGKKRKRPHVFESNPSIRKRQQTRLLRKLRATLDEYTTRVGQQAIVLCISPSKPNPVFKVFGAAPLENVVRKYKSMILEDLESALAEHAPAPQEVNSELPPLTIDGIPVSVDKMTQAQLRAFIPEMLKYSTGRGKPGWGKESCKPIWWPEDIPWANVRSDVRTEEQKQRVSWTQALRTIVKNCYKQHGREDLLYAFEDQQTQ
Kind of data set: ITC; two-site fit; DNA 500 uM into 50 uM protein; Kd only in Fig 4B; ITC: 50 mM Tris pH 8.0, 100 mM NaCl, 1 mM EDTA, 1 mM DTT, 25 C; EMSA: Thermo 20148 kit, SH-SY5Y nuclear extract. The following applies: protein: recombinant; cleaved with HRV 3C when needed; chain copies: 2. Background: In ITC the heat of successive injections is recorded.

B1: RS(WT) / RS(G) (dsDNA)
DNA 1: GGCGCAGCCGCAGC
DNA 2: GCTGCGGCTGCGCC
Regarding B1, the binding result is on record as “binds”.

These data come from publication PMC11868986, “Identification of Schizophrenia‐Risk Regulatory Variant rs1399178 in the Non‐coding Region With Its Impact on NRF1 Binding”.
